The source of these data is the supplement of paper PMC9170038.

This data set relates to MS2 coat protein. Nature of the data set: apparent KD of MS2 coat protein; designed switch direction (-1 OFF switch, 1 ON switch): 1; higher = weaker reporter binding. The essentials:
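On Illumina chips, designed RNA switches with common flanks were made by stalled E. coli RNA polymerase. Titrations with SNAP-549-labelled MS2 coat protein, doubling from 0.7 or 1.5 nM to 3 µM, were done with no input, with 200 uM small-molecule ligand, or with an oligonucleotide input. Apparent KD is the median per design over clusters, from curve fits of normalised cluster fluorescence.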

The mark [1] stands for this setting: input ligand: microRNA oligo, concentration not stated.

Consider “CAUCUAUACGUAGGAUAUGUAGGAUAUUCCUACAUGAGGAUCACCCAUGUUCGCAUGGAAGAAGGACAGAAGGACGAACUACUU [pwkr ssNG2 2FMN + 1F5.7] (Eterna round: R96, puzzle: Same State NG 2)”, for which the “apparent KD of MS2 coat protein” value by setting is: (input ligand: FMN 200 uM) 320 nM; under setting [1], 144 nM; (input ligand: none) 21.5 nM.

As to “CAUCUCCCUUUUACAUGAGGAUCACCCAUGUUUUUAUAAUGAGAGGAUAUCGUAUUUAGAAACAUCGAGAAGGCUCAAUUGUAU [JR_SSNG3_Sub071] (Eterna round: R96, puzzle: Same State NG 3)”, the “apparent KD of MS2 coat protein” value reads like this: (input ligand: FMN 200 uM) 131 nM; under setting [1], 93 nM; (input ligand: none) 153 nM.

As to “CCAAAGUACAAUUUAGAUCUACAUGAGGAUCACCCAUGUACUGAGGAUAUCAGCUCGAAUAGAGCUGAGAAGGCAGAAUUAAUU [SSNG3/4-A1] (Eterna round: R96, puzzle: Same State NG 3)”, the “apparent KD of MS2 coat protein” value was 155 nM (input ligand: FMN 200 uM), 155 nM under setting [1] and 317 nM (input ligand: none).

Turning to “CCAAAGUACAAUUUAGAUCUACAUGAGGAUCACCCAUGUACUGAGGAUAUCAGCUCGAUUAGAGCUGAGAAGGCAGAAUUAAUU [SSNG3/4-A2] (Eterna round: R96, puzzle: Same State NG 3)”, the “apparent KD of MS2 coat protein” value was found to be 101 nM (input ligand: FMN 200 uM), 90 nM under setting [1] and 148 nM (input ligand: none).

In the case of “CCAUAACGGUGAGGAUAUUGUUGCGAUAAGUGACGAGAAGGCAUUCAUGUGAAAUAAACAUACAUGAGGAUCACCCAUGUUGUA [Omei SS(NG)1 Bv3] (Eterna round: R96, puzzle: Same State NG 1)”, the “apparent KD of MS2 coat protein” value reads like this: (input ligand: FMN 200 uM) 22.6 nM; under setting [1], 40.8 nM; (input ligand: none) 50.2 nM.

As for “CCAUAGUACAAUUUAGAUCUACAUGAGGAUCACCCAUGUACUGAGGAUAUCAGCUCGAAUAGAGCUGAGAAGGCAGAAGUACUU [SSNG3/6-A1] (Eterna round: R96, puzzle: Same State NG 3)”, the “apparent KD of MS2 coat protein” value (input ligand: FMN 200 uM) is 22.6 nM, the “apparent KD of MS2 coat protein” value under setting [1] stood at 101 nM and the “apparent KD of MS2 coat protein” value (input ligand: none) was determined as 83.6 nM.

For “CCAUAGUACAAUUUAGAUCUACAUGAGGAUCACCCAUGUACUGAGGAUAUCAGCUCGAUUAGAGCUGAGAAGGCAGAAGUACUU [SSNG3/6-A2] (Eterna round: R96, puzzle: Same State NG 3)”, the “apparent KD of MS2 coat protein” value (input ligand: FMN 200 uM) was determined as 39.3 nM, the “apparent KD of MS2 coat protein” value under setting [1] amounted to 64.6 nM and the “apparent KD of MS2 coat protein” value (input ligand: none) was 81.1 nM.

Consider “CCAUAGUACAAUUUAGAUCUACAUGAGGAUCACCCAUGUACUGAGGAUAUCAGCUCGUUUAGAGCUGAGAAGGCAGAAUUAAUU [SSNG3/5-A3] (Eterna round: R96, puzzle: Same State NG 3)”, for which the “apparent KD of MS2 coat protein” value came out at 57.1 nM (input ligand: FMN 200 uM), 116 nM under setting [1] and 112 nM (input ligand: none).

In the case of “CCAUGGUAACAUGAGGAUCACCCAUGUACAAGCUUUUUGCUCGGUUUUAUCCCGGGCCCGGAUUACACGGGCCCGGG [Initial Design] (puzzle: Sensor for hsa-mir-208a version 2)”, the “apparent KD of MS2 coat protein” value (Eterna round: R95, input ligand: FMN 200 uM) is 41.4 nM; the “apparent KD of MS2 coat protein” value (Eterna round: R95, input ligand: microRNA oligo, concentration not stated) came out at 50.7 nM; the “apparent KD of MS2 coat protein” value (Eterna round: R95, input ligand: none) is 33.6 nM.

As for “CCCUGAGGUAACCUACAGGGACAUGAGGAUCACCCAUGUACACAGGAUAUCGAAGGCUCCGCCCUCGAGAAGGGUGAUCAAACU [Leuslein] (Eterna round: R96, puzzle: Same State NG 3)”, the “apparent KD of MS2 coat protein” value is, setting by setting: (input ligand: FMN 200 uM) 1520 nM; under setting [1], 266 nM; (input ligand: none) 109 nM.

Consider “CCGAGUGGCGUACAGGAUAUGUUGCGUGGAACAUGAGGAUCACCCAUGUAUUUGCUCCUGCAUACGCAGAAGGGUGCGUCCUGGG [Estedibe] (Eterna round: R96, puzzle: Same State 2)”, for which the “apparent KD of MS2 coat protein” value (input ligand: FMN 200 uM) turned out to be 16 nM, the “apparent KD of MS2 coat protein” value under setting [1] amounted to 24.1 nM and the “apparent KD of MS2 coat protein” value (input ligand: none) came out at 29.3 nM.
